Measurements taken from PMC9018708.

Columns and labels:
[1] = target: Heparin Binding EGF Like Growth Factor (DT receptor) on Vero cells (African green monkey (endogenous in Vero))
[2] = target: Heparin Binding EGF Like Growth Factor, endogenous on ARN8 cells (human (endogenous in ARN8)) (UniProt Q99075)
[3] = target: human Heparin Binding EGF Like Growth Factor, overexpressed on ARN8 HBEGFKO cells (human) (UniProt Q99075)
[4] = target: Heparin Binding EGF Like Growth Factor (DT receptor) on Vero cells (African green monkey (endogenous in Vero)); remark: listed apart in the source

| Substance | EC50 of toxicity toward Vero cells (dose titration) [1] [nM] | sensitivity (EC50), dose titration on WT ARN8 cells (HBEGFKO cells: 245 nM) [2] [nM] | sensitivity (EC50), dose titration on +HBEGF ARN8 cells [3] [nM] | EC50 of inhibition of protein synthesis (nLucP assay) in Vero cells, overnight (18 h) incubation [4] [nM] | DT sensitivity (EC50), dose titration on WT ARN8 cells (HBEGFKO cells: N/A) [2] [nM] | DT sensitivity (EC50), dose titration on +HBEGF ARN8 cells [3] [nM] | sensitivity (EC50), dose titration on WT ARN8 cells (HBEGFKO cells: 55 nM) [2] [nM] |
| --- | --- | --- | --- | --- | --- | --- | --- |
| DT(ATR), DT chimera with the R domain of Albireti Toxin | 12 | 169 | 608 |  |  |  |  |
| Diphtheria toxin (from UniProt P00588 33-567) (natural protein) |  |  |  | 0.00015 | 0.026 | 0.00043 |  |
| DT(PTR), DT chimera with the R domain of Peptono Toxin | 7 |  | 50 |  |  |  | 25 |
